For one molecule, binding result and Kd results are on record in patent US20260137781A1 (University of California, published 2026).

Test [1] deals with T1, Integrin beta-2/Integrin alpha-L recombinant protein complex (R and D 3868-AV) (UniProt P20701 26-1090).
T1 construct: Bought complex; also called Itgal/Itgβ2; ItgaL/Itgβ2
In words: BLI (Octet), antibody captured on AHQ biosensor, integrin complex in solution at 300/60/12 nM; the legend paragraph 15 names Itgal/Itgb2 as the antigen. The procedure: (§1) To determine the binding kinetic parameters of the antibodies, BLI experiments were performed on an Octet HTX instrument (Sartorius) at 1000 rpm and 25° C. All proteins were diluted in an assay buffer (PBS, 1% BSA, 0.05% Tween 20). Test and control antibodies at a concentration of 2 μg/ml were first captured on AHQ biosensors to achieve the binding signals of 0.8-1.3 nm. Unoccupied Fc-binding sites on the antibody-coated sensors were subsequently quenched by 20 μg/mL of the Fc protein. After equilibration with the assay buffer, the biosensors were then dipped for 600 s into wells containing 5-fold serial dilution of Integrin-beta 2 complexes (association phase), followed by a transfer back into an assay buffer for additional 600 s (dissociation phase). Assay buffer alone served as a negative control. Binding response data were reference subtracted and were globally fitted with 1:1 binding model using ForteBio's Octet Systems software 9.0.

For test [2], the target named is T2, recombinant Itgβ2 (Integrin beta-2 complex, alpha chain not stated for this result).
T2 construct: Bought R&D Systems heterodimer; also called Integrin-beta 2 complexes
In words: BLI (Octet), antibody captured on AHQ biosensors, Integrin beta-2 complex in solution, 1:1 fit. As to the method: as §1
(Biolayer interferometry detects binding as a change in optical thickness at a sensor tip.)

For test [3], the target named is Integrin beta-2/Integrin alpha-M recombinant protein complex (R and D 4047-AM) (UniProt P11215 17-1105). In words: phage display selection on immobilised complex, clones evaluated by phage ELISA. As to the method: Briefly, Integrin-beta-2 recombinant protein complexes were immobilized on Maxisorp Immuno plates (ThermoFisher, #12-565-135) and used for positive binding selections with library phage pools that were first exposed to neutravidin coated wells to deplete nonspecific binders. After four rounds of binding selections, clonal phage was prepared and evaluated by phage ELISA and sequencing as described (PMID: 23219464).
A general note: ELISA stands for enzyme-linked immunosorbent assay.

B1: Antibody D3-7065 (antibody, V domains shown)
VH: EVQLVESGGGLVQPGGSLRLSCAASGFTISYYYMHWVRQAPGKGLEWVASISSSSGYTYYADSVKGRFTISADTSKNTAYLQMNSLRAEDTAVYYCARGAMDYWGQGTLVTVSS
VL: DIQMTQSPSSLSASVGDRVTITCRASQSVSSAVAWYQQKPGKAPKLLIYSASSLYSGVPSRFSGSRSGTDFTLTISSLQPEDFATYYCQQFSSGSWAPITFGQGTKVEIK
notes: It was purified on protein A and captured on AHQ biosensors for BLI
The term Kd denotes the equilibrium constant for the complex coming apart. Regarding B1, the binding result in test [1] and in test [3] was “binds” each time. Further, the Kd in test [2] stood at 1.56 nM.
